Source: patent US20250155401, “RAPID, SINGLE-STEP AND REAGENTLESS ELECTROCHEMICAL BIOSENSING METHODS, COMPOSITIONS AND DEVICES FOR NANOMOLAR DETECTION OF C-REACTIVE PROTEIN” (Advanced Biomedical Instrumentation Centre Limited, published 2025)

T1: C-reactive protein (CRP) (UniProt P02741 P02741:19-224)
T1 sequence: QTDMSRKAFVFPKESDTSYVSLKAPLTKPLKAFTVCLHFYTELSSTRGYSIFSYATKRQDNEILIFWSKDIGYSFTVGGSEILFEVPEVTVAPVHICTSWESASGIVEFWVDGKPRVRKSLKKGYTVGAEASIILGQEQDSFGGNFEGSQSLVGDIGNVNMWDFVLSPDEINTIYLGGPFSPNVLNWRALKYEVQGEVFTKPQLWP


Assays:
C-reactive protein (CRP) [1] = biological target: T1, C-reactive protein (CRP); assay: square wave voltammetry; no response up to 500 nM CRP in PBS with 1 mM BSA; details: tags: abcam ab167710, HEK 293 expressed, >95% purity; chain copies: 5 (pentamer, stated); label: 3' methylene blue
Experimental: Refer to FIGS. 3A-3E for the following descriptions. To assess specificity of the CRP-targeting aptamer, initial assays are conducted in PBS (1×) buffer supplemented with bovine serum albumin ‘BSA’. Albumin is fixed at a concentration of 1 mM to reflect slightly higher concentrations than those found in serum. Control sensors are prepared in the same fashion as with test sensors using an excised version of the CRP-targeting aptamer sequence without flanking primer regions (FIG. 3D). […] A Limit of detection ‘LOD’ of 105.4 pM is calculated using linear regression, using n=3 independently prepared sensors. […] Here, CRP concentration is reported in molar units and calculate values based on the pentameric isoform weight of 115-120 kDa, as is reported by the commercial supplier and elsewhere.

C-reactive protein (CRP) [2] = biological target: T1, C-reactive protein (CRP); assay: square wave voltammetry on gold SPE, Hill-Langmuir fit of 48-hour sensor re-use data; BSA-doped PBS with Mg, room temperature not stated; details: tags: abcam ab167710, HEK 293 expressed, >95% purity; chain copies: 5 (pentamer, stated); label: 3' methylene blue
Experimental: Refer to FIGS. 4A-4D for the following descriptions. To assess reusability of the prepared aptasensors, dose-response assays are conducted in BSA doped PBS buffer 48 hours after initial testing. Magnesium is used to supplement PBS buffer to more closely match the ion content found in serum with observations showing little difference between results obtained from the initial screening assay. […] Despite these uncertainties, linear range observed for used sensors is broadly maintained. For used sensors, the LOD calculated from linear regression is shown to be approximately 363 pM which matched well with an LOD value of approx. 374 pM derived from non-linear regression fits to the Hill-Langmuir (dose response) function described in section 2.6. Non-Linear fitting is achieved with good fitting (adjusted R₂=0.99). […] Here, concentration is provided in molar units, calculated using the CRP pentameric isoform weight of 120 kDa.

[3] = biological target: bovine serum albumin (BSA) (Bos taurus, UniProt P02769 P02769:25-607); assay: square wave voltammetry; no observable deviation in response, PBS; details: tags: Sigma-Aldrich, lyophilized powder >96%; label: 3' methylene blue
Chain of bovine serum albumin (BSA) (P02769 25-607, one chain of several): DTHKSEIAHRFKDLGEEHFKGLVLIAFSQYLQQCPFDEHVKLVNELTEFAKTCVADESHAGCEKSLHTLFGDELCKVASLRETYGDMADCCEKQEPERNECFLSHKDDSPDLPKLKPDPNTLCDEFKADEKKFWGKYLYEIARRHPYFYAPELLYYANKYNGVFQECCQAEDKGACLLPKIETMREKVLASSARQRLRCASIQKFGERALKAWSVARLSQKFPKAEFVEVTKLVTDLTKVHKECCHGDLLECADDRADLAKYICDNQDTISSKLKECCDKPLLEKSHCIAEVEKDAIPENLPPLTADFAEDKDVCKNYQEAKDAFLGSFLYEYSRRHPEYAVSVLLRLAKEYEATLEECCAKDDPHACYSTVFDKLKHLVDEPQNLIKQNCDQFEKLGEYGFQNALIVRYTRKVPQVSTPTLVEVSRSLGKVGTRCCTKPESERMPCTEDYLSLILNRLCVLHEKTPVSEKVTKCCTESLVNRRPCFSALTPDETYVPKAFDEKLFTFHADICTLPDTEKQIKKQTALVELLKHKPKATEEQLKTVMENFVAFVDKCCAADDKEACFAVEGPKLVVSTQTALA
Experimental: (§1) The initial response spike is caused by injection of the analyte. Subsequent stabilisation of the response signal via this testing method occurs over 2-3 minutes. Crucially, significant concentrations of bovine serum albumin, and human serum albumin produce no observable deviation in response, confirming excellent selectivity against serum endogenous proteins that are well known to produce false positives in other sensors formats.

[4] = biological target: human serum albumin (HSA) (Homo sapiens, UniProt P02768 P02768:25-609); assay: as above; details: label: 3' methylene blue
Chain of human serum albumin (HSA) (P02768 25-609, one chain of several): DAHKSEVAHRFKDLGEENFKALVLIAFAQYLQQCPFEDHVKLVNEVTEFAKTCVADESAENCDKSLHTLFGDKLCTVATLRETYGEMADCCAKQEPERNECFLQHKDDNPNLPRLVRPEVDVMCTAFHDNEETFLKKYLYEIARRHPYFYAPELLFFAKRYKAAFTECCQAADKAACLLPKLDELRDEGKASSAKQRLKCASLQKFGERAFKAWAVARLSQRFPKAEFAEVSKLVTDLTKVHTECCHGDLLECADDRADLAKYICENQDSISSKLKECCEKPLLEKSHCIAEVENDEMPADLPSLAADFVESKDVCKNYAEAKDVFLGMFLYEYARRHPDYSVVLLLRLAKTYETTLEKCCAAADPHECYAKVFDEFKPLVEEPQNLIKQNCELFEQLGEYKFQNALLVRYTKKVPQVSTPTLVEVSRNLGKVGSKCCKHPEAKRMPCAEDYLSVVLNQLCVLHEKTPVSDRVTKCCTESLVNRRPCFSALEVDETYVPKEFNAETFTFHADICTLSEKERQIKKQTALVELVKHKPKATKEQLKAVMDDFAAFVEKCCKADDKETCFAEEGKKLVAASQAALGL
Experimental: as §1

Row | Binder | binding result (C-reactive protein (CRP) [1]) | Kd (C-reactive protein (CRP) [2]) | binding result [3] | binding result [4]
1 | CGATGGGGGGGTATGATTTGATGTGGTTGTTGCATGATCG (ssDNA, 5' thiol modifier (C6-S-S), 3' methylene blue via C7 spacer) [CRP-targeting aptamer without flanking primer regions (control)] | no binding | – | – | –
2 | CRP-targeting aptamer (ssDNA, 5' thiol modifier (C6-S-S), 3' methylene blue via C7 spacer) DNA: GGCAGGAAGACAAACACGATGGGGGGGTATGATTTGATGTGGTTGTTGCATGATCGTGGTCTGTGGTGCTGT | – | 55.4 nM | no binding | no binding
